Non-standard residues stand in square brackets, D forms with d. No end group written: not given here. *: point of attachment. pY = N[C@@H](Cc1ccc(OP(=O)(O)O)cc1)C(=O)O; NBD = O=[N+]([O-])c1ccc(*)c2nonc12; βAla = NCCC(=O)O
Target: Alkaline phosphatase (Biomatik, Cat. No. A1130)
Assay: cell-based or functional assay

Binder: {NBD}-[βAla]LL[pY]LL [phosphopentapeptide 7, NBD-βA-LLpYLL]
- half-life of 7 at 100 µM with 0.5 U/mL ALP: 127 min
- half-life of 7 at 200 µM with 0.5 U/mL ALP: 112 min
- half-life of 7 at 400 µM with 0.5 U/mL ALP: 126 min

Binder: {NBD-βAla}-[dL][dL][dL][dL][pY] [phosphopentapeptide 9, NBD-βA-llllpY]
- half-life of 9 at 100 µM with 0.5 U/mL ALP: 24.6 min
- half-life of 9 at 200 µM with 0.5 U/mL ALP: 21.6 min
- half-life of 9 at 400 µM with 0.5 U/mL ALP: 27 min

Binder: {NBD}-[βAla]LLLL[pY] [L-phosphopentapeptide 5, NBD-βA-LLLLpY]
- half-life of 5 (400 µM) with 0.1 U/mL ALP: 122 min
- half-life of 5 at 100 µM with 0.5 U/mL ALP (LC-MS): 27.3 min
- half-life of 5 at 200 µM with 0.5 U/mL ALP (LC-MS): 21.6 min
- half-life of 5 at 400 µM with 0.5 U/mL ALP (LC-MS): 30.6 min

From US20240294570A1 (BRANDEIS UNIVERSITY, published 2024)
